The values below come from article PMC4621449.

The target of this data set is SO_3165 antitoxin (MNT family), SO_3165-CHis (Shewanella oneidensis (MR-1)) (UniProt Q8ECH7). The data set can be described thus: EMSA. The settings on record: 10 mM HEPES pH 7.3, 20 mM KCl, 1 mM MgCl2, 5% glycerol, NP-40, poly dI-dC, 25 C, 1 h; 0.05 pmol biotin-DNA; 6% gel in 0.5x TBE.
SO_3165 antitoxin (MNT family), SO_3165-CHis (Shewanella oneidensis (MR-1)), sequence (Q8ECH7 whole entry): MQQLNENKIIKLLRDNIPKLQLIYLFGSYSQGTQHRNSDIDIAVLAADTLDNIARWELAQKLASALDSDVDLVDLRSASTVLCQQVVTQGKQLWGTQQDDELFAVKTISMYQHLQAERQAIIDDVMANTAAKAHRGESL

Turning to “TACGAGGCCAGAATTTAAAAGCGCAGCCGTCAGAAATGCAGCGATTAGAAGAAGTTGAAACTTCCGATGCAACCTCTTCAGACGCTGAACTACCAATACTTAAGCACACACATATAGAAAACCCGTCCCTACTATACCATAAACAATGTCAGGTACTGCGTATCGTTATAGAATGCACTAAAAAGTTCTAGATTAGAGCCACACAGTGGCGTCTTCAAAACCTGTGTCCGTCCTTTTGGCTCCGCCTTAATATGCTATATACTCATCCCGTATTCATCAAATCGTGCAATGGACCT (double strand) [PSO_3165-3166 promoter]”, the binding entry is “binds”.
